Reference: doi:10.1101/2021.07.22.452893 (bioRxiv, 2021)
Blank lines part the entries; values can stand above or below the molecule they belong to.

How the values were obtained:
[1] = target: Complement factor H (human) (UniProt P08603); test: ELISA
[2] = target: PPACK-thrombin; test: SPR
[3] = target: T1, fibrinogen (UniProt P02671-2 20-644; P02675 31-491; P02679-2 27-437); test: SPR
T1 sequence (looked up) 1: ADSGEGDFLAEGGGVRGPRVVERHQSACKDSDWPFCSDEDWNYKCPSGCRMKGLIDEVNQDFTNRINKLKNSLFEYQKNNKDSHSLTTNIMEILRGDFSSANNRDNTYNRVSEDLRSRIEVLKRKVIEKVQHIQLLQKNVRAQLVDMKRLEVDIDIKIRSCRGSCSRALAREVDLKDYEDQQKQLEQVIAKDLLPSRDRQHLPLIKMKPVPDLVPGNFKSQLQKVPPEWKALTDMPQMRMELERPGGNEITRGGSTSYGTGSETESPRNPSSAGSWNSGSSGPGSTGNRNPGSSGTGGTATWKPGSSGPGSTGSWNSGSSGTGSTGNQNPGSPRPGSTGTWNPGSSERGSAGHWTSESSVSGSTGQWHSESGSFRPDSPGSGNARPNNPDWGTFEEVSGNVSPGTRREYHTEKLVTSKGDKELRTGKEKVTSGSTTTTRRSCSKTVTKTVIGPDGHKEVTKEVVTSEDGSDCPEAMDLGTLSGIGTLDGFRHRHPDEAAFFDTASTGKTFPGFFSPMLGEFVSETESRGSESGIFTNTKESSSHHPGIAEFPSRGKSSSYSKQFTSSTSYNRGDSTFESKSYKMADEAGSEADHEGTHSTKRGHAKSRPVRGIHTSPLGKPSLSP
T1 sequence (looked up) 2: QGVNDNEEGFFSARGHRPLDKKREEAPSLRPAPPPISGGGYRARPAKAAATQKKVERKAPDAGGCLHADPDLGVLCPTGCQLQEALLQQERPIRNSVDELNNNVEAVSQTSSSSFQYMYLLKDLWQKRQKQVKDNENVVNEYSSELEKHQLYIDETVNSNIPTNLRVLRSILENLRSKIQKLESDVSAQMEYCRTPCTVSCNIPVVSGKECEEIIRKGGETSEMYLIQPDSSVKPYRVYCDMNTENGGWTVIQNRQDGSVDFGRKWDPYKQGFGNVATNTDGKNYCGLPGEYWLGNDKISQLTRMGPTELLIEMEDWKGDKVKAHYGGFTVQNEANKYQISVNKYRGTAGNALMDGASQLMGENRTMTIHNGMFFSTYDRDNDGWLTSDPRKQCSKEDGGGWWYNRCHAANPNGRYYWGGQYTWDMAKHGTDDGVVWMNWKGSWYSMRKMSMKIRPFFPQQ
T1 sequence (looked up) 3: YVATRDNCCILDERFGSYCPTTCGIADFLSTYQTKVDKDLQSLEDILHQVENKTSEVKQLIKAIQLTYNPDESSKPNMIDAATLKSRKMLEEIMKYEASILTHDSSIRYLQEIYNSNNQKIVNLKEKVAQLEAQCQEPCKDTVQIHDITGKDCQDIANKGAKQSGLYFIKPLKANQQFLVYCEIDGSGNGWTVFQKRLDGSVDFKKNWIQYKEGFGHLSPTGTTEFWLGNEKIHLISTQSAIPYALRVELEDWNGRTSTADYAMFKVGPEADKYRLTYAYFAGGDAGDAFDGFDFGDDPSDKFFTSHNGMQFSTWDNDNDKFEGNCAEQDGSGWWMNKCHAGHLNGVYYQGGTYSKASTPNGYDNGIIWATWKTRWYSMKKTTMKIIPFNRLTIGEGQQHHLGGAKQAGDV

FH-thrombin complex formed in plasma [1]: 62 nM
Molecule: PPACK-thrombin (enzyme)

Kd [2]: 29.7 nM
Kd [3]: 38.2 nM
B1: Complement factor H (natural protein, human, UniProt P08603 19-1231, looked up)
chain: EDCNELPPRRNTEILTGSWSDQTYPEGTQAIYKCRPGYRSLGNVIMVCRKGEWVALNPLRKCQKRPCGHPGDTPFGTFTLTGGNVFEYGVKAVYTCNEGYQLLGEINYRECDTDGWTNDIPICEVVKCLPVTAPENGKIVSSAMEPDREYHFGQAVRFVCNSGYKIEGDEEMHCSDDGFWSKEKPKCVEISCKSPDVINGSPISQKIIYKENERFQYKCNMGYEYSERGDAVCTESGWRPLPSCEEKSCDNPYIPNGDYSPLRIKHRTGDEITYQCRNGFYPATRGNTAKCTSTGWIPAPRCTLKPCDYPDIKHGGLYHENMRRPYFPVAVGKYYSYYCDEHFETPSGSYWDHIHCTQDGWSPAVPCLRKCYFPYLENGYNQNYGRKFVQGKSIDVACHPGYALPKAQTTVTCMENGWSPTPRCIRVKTCSKSSIDIENGFISESQYTYALKEKAKYQCKLGYVTADGETSGSITCGKDGWSAQPTCIKSCDIPVFMNARTKNDFTWFKLNDTLDYECHDGYESNTGSTTGSIVCGYNGWSDLPICYERECELPKIDVHLVPDRKKDQYKVGEVLKFSCKPGFTIVGPNSVQCYHFGLSPDLPICKEQVQSCGPPPELLNGNVKEKTKEEYGHSEVVEYYCNPRFLMKGPNKIQCVDGEWTTLPVCIVEESTCGDIPELEHGWAQLSSPPYYYGDSVEFNCSESFTMIGHRSITCIHGVWTQLPQCVAIDKLKKCKSSNLIILEEHLKNKKEFDHNSNIRYRCRGKEGWIHTVCINGRWDPEVNCSMAQIQLCPPPPQIPNSHNMTTTLNYRDGEKVSVLCQENYLIQEGEEITCKDGRWQSIPLCVEKIPCSQPPQIEHGTINSSRSSQESYAHGTKLSYTCEGGFRISEENETTCYMGKWSSPPQCEGLPCKSPPEISHGVVAHMSDSYQYGEEVTYKCFEGFGIDGPAIAKCLGEKWSHPPSCIKTDCLSLPSFENAIPMGEKKDVYKAGEQVTYTCATYYKMDGASNVTCINSRWTGRPTCRDTSCVNPPTVQNAYIVSRQMSKYPSGERVRYQCRSPYEMFGDEEVMCLNGNWTEPPQCKDSTGKCGPPPPIDNGDITSFPLSVYAPASSVEYQCQNLYQLEGNKRITCRNGQWSEPPKCLHPCVISREIMENYNIALRWTAKQKLYSRTGESVEFVCKRGYRLSSRSHTLRTTCWDGKLEYPTCAKR
